# Laboratory results published in article PMC10128069, “A Fijivirus Major Viroplasm Protein Shows RNA-Stimulated ATPase Activity by Adopting Pentameric and Hexameric Assemblies of Dimers” (mBio, 2023).
# B1: P9-1 major viroplasm protein of mal de Río Cuarto virus (MRCV), full-length, expressed in E. coli from pRSET (natural protein)
# chain: MADLERRTFGSYKIEEITIKNDQQQKTTNQQQISNNEQRISTKKIPILDDGIFDLINYLLNGTHFDKTHYCGFDYSHLPTLERDFNTASNYVSENYSIIVEEIDLNKYERSESISLKSPDFTVVLEYFKKHVEGQTEQEENKTESTSSELPAKIVRELPLLPIMCRESEDSISEDILEGEGAVIQVLKMFMKGFLVHLGENPNSYDRQLTIEKYRPLLISIIGYEFTVGTRATHTKINHIYYQLATFDNYPFDLLRFQLQSLIDTPNVIKERIEKDGLFKVITTTNARGQYQSVLLRGINGSESYLNLKRYRKFKVRVVGNVDNVIKNDFSSLKLDV
# notes: source: E. coli BL21, purified (IMAC on Ni-NTA, SEC on Superdex 200); copies: 10 or 12
# B2: P9-1ΔC-arm (residues 1 to 313 of MRCV P9-1, lacking the 24 C-terminal residues) (domain or fragment)
# chain: MADLERRTFGSYKIEEITIKNDQQQKTTNQQQISNNEQRISTKKIPILDDGIFDLINYLLNGTHFDKTHYCGFDYSHLPTLERDFNTASNYVSENYSIIVEEIDLNKYERSESISLKSPDFTVVLEYFKKHVEGQTEQEENKTESTSSELPAKIVRELPLLPIMCRESEDSISEDILEGEGAVIQVLKMFMKGFLVHLGENPNSYDRQLTIEKYRPLLISIIGYEFTVGTRATHTKINHIYYQLATFDNYPFDLLRFQLQSLIDTPNVIKERIEKDGLFKVITTTNARGQYQSVLLRGINGSESYLNLKRYRK
# notes: source: E. coli BL21, purified (IMAC on Ni-NTA, SEC on Superdex 200); not shown: His6, N-terminal, kept
# Columns and labels:
# [1] = target: P9-1 (Mal de Rio Cuarto virus (MRCV)) (UniProt D9U542); assay: competition EMSA; details: 10 mM Tris-HCl, 50 mM KCl, 0.5 mM EDTA, 10% glycerol, 1 mM DTT, pH 7.5; 30 min at room temperature; 6.5% native PAGE at 4 C
# SEC-MALS = target: the molecule itself; assay: SEC-MALS
# SAXS = target: the molecule itself; assay: SAXS
# cryo-EM structure = target: the molecule itself; assay: cryo-EM structure
# P9-1 = P9-1 (Mal de Rio Cuarto virus (MRCV), UniProt D9U542 1-337); assay: EMSA; 5 uM probe; concentration-dependent, 1, 3, 6 uM protein; 10 mM Tris-HCl, 50 mM KCl, 0.5 mM EDTA, 10% glycerol, 1 mM DTT, pH 7.5; 30 min at room temperature; 6.5% native PAGE at 4 C; details: protein: recombinant; tags: N-terminal 52-residue tag (6xHis/Xpress/EK); label: 5'-HEX; single strand
# crystal structure = target: the molecule itself; assay: crystal structure
molecule,measurement,setting,value
"poly(A), average 250 nt",binding signal (fold decrease of ssDNA complex),[1],10
B1,stoichiometry N,SEC-MALS,~10.4 protomers
same,stoichiometry N,SAXS,10
same,stoichiometry N,cryo-EM structure,12
GACCTCGCTCTCTGTTTCTCAT (ssDNA) [22-nt HEX-ssDNA probe],binding result,P9-1,binds
B2,stoichiometry N,SEC-MALS,~2.3 protomers
same,stoichiometry N,crystal structure,2
